Among the data in patent US20120321591A1 (COVX TECHNOLOGIES IRELAND, published 2012) are IC50 values, retold here.

The target of experiment [1] is T1, human angiopoietin-2 protein (human, UniProt O15123 19-496).
T1 construct: also called Ang-2; Ang2
T1 sequence (looked up): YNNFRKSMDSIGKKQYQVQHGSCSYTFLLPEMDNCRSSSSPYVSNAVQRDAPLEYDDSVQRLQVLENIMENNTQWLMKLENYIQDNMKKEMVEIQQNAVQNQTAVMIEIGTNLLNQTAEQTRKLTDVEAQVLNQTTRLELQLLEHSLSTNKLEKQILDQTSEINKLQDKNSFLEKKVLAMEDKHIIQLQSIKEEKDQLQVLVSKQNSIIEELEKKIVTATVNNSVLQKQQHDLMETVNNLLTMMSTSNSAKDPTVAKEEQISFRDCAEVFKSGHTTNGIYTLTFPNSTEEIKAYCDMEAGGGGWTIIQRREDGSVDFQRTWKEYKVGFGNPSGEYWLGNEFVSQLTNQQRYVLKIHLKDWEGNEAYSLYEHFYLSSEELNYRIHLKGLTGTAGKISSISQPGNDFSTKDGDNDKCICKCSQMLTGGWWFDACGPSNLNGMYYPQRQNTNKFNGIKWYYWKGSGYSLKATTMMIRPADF
Kind of experiment: competitive ELISA: Tie-2-Fc binding to coated Ang-2; T. How it is done: (§1) Plates were washed three times with washing buffer (0.1% Tween 20, PBS, pH 7.4) and blocked with Superblock (Scytek), […] at room temperature (“RT”) for 1 hour. […] Plates were washed 3 times with washing buffer. […] Following incubation, 50 ul of 1:5,000 dilution of goat anti-mouse IgG-HRP in Superblock was then added and incubated at RT for one hour. After washing 3 times, […] was added, and incubated for 3-5 minutes. Color development was monitored and stopped with 25 μl of 2 M H₂SO₄. OD450 nm with a correction wavelength of 540 nm was measured.
(In an ELISA, binding on a coated surface is turned into a signal by an enzyme label.)

For experiment [2], the target named is T2, recombinant human VEGF165 (human, UniProt P15692-4 27-191).
T2 construct: also called rhVEGF165
T2 sequence (P15692 other isoform, or with tags, fused parts or gaps limits assumed): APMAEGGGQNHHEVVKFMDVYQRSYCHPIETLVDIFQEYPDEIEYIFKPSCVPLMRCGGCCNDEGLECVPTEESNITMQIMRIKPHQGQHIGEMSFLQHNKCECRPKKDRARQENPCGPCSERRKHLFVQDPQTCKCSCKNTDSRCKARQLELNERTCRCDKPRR
The experiment can be described thus: competition ELISA: VEGF165 binding to coated VEGFR2/Fc; normalized value.

In experiment [3] the target is T1, human angiopoietin-2 protein. Kind of experiment: competitive ELISA: Tie-2-Fc binding to coated Ang-2; peptide alone. As to the method: as §1

Bridges are numbered along the chain shown (N, C = ends). Where no end group is shown, it is not given here. [ ]: non-standard residue; d: D form. Phe(4-NO2) = N[C@@H](Cc1ccc([N+](=O)[O-])cc1)C(=O)O; Phe(4-COOH) = N[C@@H](Cc1ccc(C(=O)O)cc1)C(=O)O; Bpa = N[C@@H](Cc1ccc(C(=O)c2ccccc2)cc1)C(=O)O; Hyp = O=C(O)[C@@H]1C[C@@H](O)CN1; 0P linker = not defined here; 4P linker = not defined here; ThA = not defined here

In the case of QXYQXLDELDKTLYDQFMLQQG (N-terminal acyl cap; C-terminal amino cap; Kac 2; HP 5; 0P linker on K11, also called 4035 T) [Compound 4035, peptide plus linker (T)], the 50% inhibitory concentration (IC50) – broadly, the concentration that gives 50% inhibition – in experiment [1] was determined as 121 nM.

B1: Compound 4061, peptide plus linker (T) (peptide)
peptide: QXYQPLDELDKTLYDQFMLQQG
modifications: not fully specified; N-terminal acyl cap; C-terminal amino cap; Nick 2; 0P linker on K11
notes: also called 4061 T
As for B1, in experiment [1], the IC50 is 83.9 nM.

XQXYQPLDELDKTLYDQFMLQQG (DFB at N-terminus; C-terminal amino cap; Kac 2; 0P linker on K11) [Compound 4050, peptide plus linker (T)] displayed an IC50 in experiment [1] of 33 nM.

B2: Compound 4055, peptide plus linker (T) (peptide)
peptide: QXYQPLDELDXTLYDQFMLQQG
modifications: not fully specified; N-terminal acyl cap; C-terminal amino cap; Kac 2; 0P linker on Dap 11
notes: also called 4055 T
The molecule B2 registered an IC50 in experiment [1] of 598 nM.

QXYQPLDELDKTXYDQFMLQQG (N-terminal acyl cap; C-terminal amino cap; Kac 2; 0P linker on K11; Nva 13, also called 4041 T) [Compound 4041, peptide plus linker (T)] came in with an IC50 in experiment [1] of 1340 nM.

B3: Compound 4033, peptide plus linker (T) (peptide)
peptide: QK(Ac)YQPLDEK(0P linker)DETLYDQFMLQQG
modifications: reading uncertain; also: N-terminal acyl cap, C-terminal amino cap, printed as Q(Kac)Y QPL DEK(0P) DET LYD QFM LQQ G
notes: also called 4033 T
The molecule B3 gave an IC50 in experiment [1] of 370 nM.

QXYQPLDEIDKTLYDQFMLQQG (N-terminal acyl cap; C-terminal amino cap; Kac 2; 0P linker on K11, also called 4037 T) [Compound 4037, peptide plus linker (T)] returned an IC50 in experiment [1] of 1270 nM.

On to QXYQPLDELDKTLFDQFMLQQG (N-terminal acyl cap; C-terminal amino cap; Kac 2; 0P linker on K11, also called 4044 T) [Compound 4044, peptide plus linker (T)], for which the IC50 in experiment [1] turned out to be 36.9 nM.

Take QXYQPLDELDKTIYDQFMLQQG (N-terminal acyl cap; C-terminal amino cap; Kac 2; 0P linker on K11, also called 4036 T) [Compound 4036, peptide plus linker (T)]: in experiment [1], the IC50 came out at 2410 nM.

For XQXYQPLDELDKTLYDQFMLQQG (PyC at N-terminus; C-terminal amino cap; Kac 2; 0P linker on K11, also called 4051 T) [Compound 4051, peptide plus linker (T)], in experiment [1], the half-inhibitory concentration (IC50) is 14.3 nM.

B4: Compound 4046, peptide plus linker (T) (peptide)
peptide: QK(Ac)YQ[Hyp]LDE[ThA]DK(0P linker)TL[Bpa]DQFMLQQG-NH2
modifications: not fully specified; reading uncertain; also: N-terminal acyl cap, acyl not given here
In turn, B4 registered an IC50 in experiment [1] of 82.7 nM.

B5: Compound 4034, peptide plus linker (T) (peptide)
peptide: QXYQXLDELDKTLYDQFMLQQG
modifications: not fully specified; N-terminal acyl cap; C-terminal amino cap; Kac 2; D(HP) 5; 0P linker on K11
notes: also called 4034 T
Turning to B5, the IC50 in experiment [1] came to 224 nM.

B6: Compound 4048, peptide plus linker (T) (peptide)
peptide: QK(Ac)YQPLDEK(Ac)DK(0P linker)TL[Phe(4-NO2)]DQFMLQQG-NH2
modifications: reading uncertain; also: N-terminal acyl cap, acyl not given here, printed as Q(Kac)Y QPL DE(Kac) DK(0P)T L(NO2)FD QFM LQQ G
notes: also called 4048 T
Turning to B6, the IC50 in experiment [1] came out at 82.4 nM.

Turning to Ac-VEPNCDIHVMWVWECFERLYGGW-NH2 (disulfide 5-15 (inferred)) [[VEGF-Peptide] SEQ ID NO:35], in experiment [2], the IC50 was found to be 325 nM.

Regarding Ac-VEPNCDIHVMWVWVCFERLFKEA-NH2 (disulfide 5-15 (inferred)) [[VEGF-Peptide] SEQ ID NO:37], the IC50 in experiment [2] worked out at 59 nM.

For the molecule Ac-VEPNCDIHVMWVWVCFERLFREA-NH2 (disulfide 5-15 (inferred)) [[VEGF-Peptide] SEQ ID NO:36], the IC50 in experiment [2] is 172 nM.

Regarding Ac-VEPNCDIHVMWVWECFERLYREL-NH2 (disulfide 5-15 (inferred)) [[VEGF-Peptide] SEQ ID NO:39], in experiment [2], the IC50 is 70 nM.

B7: Compound 4025, peptide plus linker (T) (peptide)
peptide: QNYQPLDELDK(4P linker)TLYDQFMLQQG-NH2
modifications: reading uncertain; also: N-terminal acyl cap, printed as QNY QPL DEL DK(4P)T LYD QFM LQQ G
notes: also called 4025 T
In turn, B7 registered an IC50 in experiment [1] of 300 nM.

QXYQPLDELDKTLYDQFMLQQG (N-terminal acyl cap; C-terminal amino cap; Kac 2; 0P linker on K11, also called 4029 T) [Compound 4029, peptide plus linker (T)] had an IC50 in experiment [1] of 83.3 nM.

XQXYQPLDELDKTLYDQFMLQQG (Amido 2-PEG at N-terminus; C-terminal amino cap; Kac 2; 0P linker on K11, also called 4052 T) [Compound 4052, peptide plus linker (T)]: the IC50 in experiment [1] turned out to be 134 nM.

B8: Compound 4056, peptide plus linker (T) (peptide)
peptide: QNYQPLDELDKTL[Bpa]DQFMLQQG-NH2
modifications: not fully specified (residue 11, N-terminus); also: N-terminal acyl cap, acyl not given here
notes: also called 4056 T
For the molecule B8, the IC50 in experiment [1] amounted to 92.2 nM.

On to QXYQPLDELDKTXYDQFMLQQG (N-terminal acyl cap; C-terminal amino cap; Kac 2; 0P linker on K11; HF 13, also called 4039 T) [Compound 4039, peptide plus linker (T)], for which the IC50 in experiment [1] was 4890 nM.

The molecule QK(Ac)YQPLDEK(Ac)DKTL[Phe(4-COOH)]DQFMLQQG-NH2 (not fully specified (residue 11, N-terminus), also called 4062 T) [Compound 4062, peptide plus linker (T)] registered an IC50 in experiment [1] of 499 nM.

Take QNYQPLDELDKTLYDQFMLQQG-NH2 (also: N-terminal acyl cap) [Compound 4023]: the IC50 in experiment [3] was found to be 27.8 nM.

B9: Compound 4027, peptide plus linker (T) (peptide)
peptide: QKYQPLDELDK(0P linker)TLYDQFMLQQG-NH2
modifications: reading uncertain; also: N-terminal acyl cap, printed as QKY QPL DEL DK(0P)T LYD QFM LQQ G
notes: also called 4027 T
Consider B9, for which the IC50 in experiment [1] came out at 29 nM.

B10: Compound 4060, peptide plus linker (T) (peptide)
peptide: QHYQPLDELDKTLYDQFMLQQG-NH2
modifications: not fully specified (residue 11, N-terminus); printed as QHY QPL DEL DK(0P)T LYD QFM LQQ G; also: N-terminal acyl cap
notes: also called 4060 T
B10 gave an IC50 in experiment [1] of 214 nM.

B11: Compound 4059, peptide plus linker (T) (peptide)
peptide: QRYQPLDELDKTLYDQFMLQQG-NH2
modifications: not fully specified (residue 11, N-terminus); printed as QRY QPL DEL DK(0P)T LYD QFM LQQ G; also: N-terminal acyl cap
notes: also called 4059 T
Molecule B11 showed an IC50 in experiment [1] of 177 nM.

For QKYQPLDELDKTLYDQFMLQQG-NH2 (not fully specified (N-terminus), also called 4026 T) [Compound 4026, peptide plus linker (T)], in experiment [1], the IC50 was 32.3 nM.

B12: Compound 4047, peptide plus linker (T) (peptide)
peptide: QK(Ac)YQ[Hyp]LDE[ThA]DK(0P linker)TL[Phe(4-COOH)]DQFMLQQG-NH2
modifications: not fully specified; reading uncertain; also: N-terminal acyl cap, acyl not given here
notes: also called 4047 T
B12: the IC50 in experiment [1] is 43.3 nM.

B13: Compound 4045, peptide plus linker (T) (peptide)
peptide: QK(Ac)YQ[Hyp]LDE[ThA]DK(0P linker)TL[Phe(4-NO2)]DQFMLQQG-NH2
modifications: not fully specified; reading uncertain; also: N-terminal acyl cap, acyl not given here
notes: also called 4045 T
B13: the IC50 in experiment [1] came to 24.7 nM.

Consider XQXYQPLDELDKTLYDQFMLQQG (DCB at N-terminus; C-terminal amino cap; Kac 2; 0P linker on K11, also called 4049 T) [Compound 4049, peptide plus linker (T)], for which the IC50 in experiment [1] is 28.4 nM.

As for QXYQPLDELDKTLYDQFMLQQG (N-terminal acyl cap; C-terminal amino cap; Kac 2; 4P linker on K11, also called 4024 T) [Compound 4024, peptide plus linker (T)], the IC50 in experiment [1] amounted to 207 nM.

QXYQPLDELDKTXYDQFMLQQG (N-terminal acyl cap; C-terminal amino cap; Kac 2; 0P linker on K11; HL 13, also called 4042 T) [Compound 4042, peptide plus linker (T)] gave an IC50 in experiment [1] of 1340 nM.

For QXYQPLDELDXTLYDQFMLQQG (N-terminal acyl cap; C-terminal amino cap; Kac 2; 0P linker on Dab 11, also called 4054 T) [Compound 4054, peptide plus linker (T)], the IC50 in experiment [1] was found to be 292 nM.

Regarding QXYQPLDEKDXTLYDQFMLQQG (N-terminal acyl cap; C-terminal amino cap; Kac 2; 0P linker on K9; Kac 11, also called 4030 T) [Compound 4030, peptide plus linker (T)], the IC50 in experiment [1] was 279 nM.

B14: Compound 4057, peptide plus linker (T) (peptide)
peptide: QNYQPLDELDKTL[Phe(4-COOH)]DQFMLQQG-NH2
modifications: not fully specified (residue 11, N-terminus); also: N-terminal acyl cap, acyl not given here
notes: also called 4057 T
In experiment [1], B14 had a half-maximal inhibitory concentration (IC50) of 110 nM.
